Measured values taken from patent US7534862.

Assays:
[1] = target: hyper-IL-6 (H-IL-6), a fusion protein comprising IL-6+sIL-6R (UniProt P08887); assay: cell-based or functional assay
[2] = target: IL-6/sIL-6R complex (100 ng/ml IL-6 + 50 ng/ml sIL-6R) (UniProt P05231); assay: cell-based or functional assay
Sequence of IL-6/sIL-6R complex (100 ng/ml IL-6 + 50 ng/ml sIL-6R) (P05231 30-212 limits assumed, chain 1 of 2): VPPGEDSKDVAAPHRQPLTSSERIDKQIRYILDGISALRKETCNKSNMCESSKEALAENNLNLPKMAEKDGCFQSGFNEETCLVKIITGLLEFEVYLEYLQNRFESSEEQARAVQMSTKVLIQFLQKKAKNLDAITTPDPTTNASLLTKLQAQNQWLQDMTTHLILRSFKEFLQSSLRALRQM
Sequence of IL-6/sIL-6R complex (100 ng/ml IL-6 + 50 ng/ml sIL-6R) (P08887 20-358 limits assumed, chain 2 of 2, further chain): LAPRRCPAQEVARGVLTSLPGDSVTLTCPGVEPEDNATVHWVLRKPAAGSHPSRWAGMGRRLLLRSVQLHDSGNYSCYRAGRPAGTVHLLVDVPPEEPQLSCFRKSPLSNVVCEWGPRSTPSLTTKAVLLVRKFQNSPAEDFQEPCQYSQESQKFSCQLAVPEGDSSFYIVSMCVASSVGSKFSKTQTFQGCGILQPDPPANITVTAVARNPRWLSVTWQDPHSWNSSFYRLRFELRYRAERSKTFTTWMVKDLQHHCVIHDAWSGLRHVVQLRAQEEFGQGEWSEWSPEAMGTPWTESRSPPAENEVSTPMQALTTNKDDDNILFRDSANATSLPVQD

Sequence of hyper-IL-6 (H-IL-6), a fusion protein comprising IL-6+sIL-6R (P08887 20-323 limits assumed, chain 1 of 2): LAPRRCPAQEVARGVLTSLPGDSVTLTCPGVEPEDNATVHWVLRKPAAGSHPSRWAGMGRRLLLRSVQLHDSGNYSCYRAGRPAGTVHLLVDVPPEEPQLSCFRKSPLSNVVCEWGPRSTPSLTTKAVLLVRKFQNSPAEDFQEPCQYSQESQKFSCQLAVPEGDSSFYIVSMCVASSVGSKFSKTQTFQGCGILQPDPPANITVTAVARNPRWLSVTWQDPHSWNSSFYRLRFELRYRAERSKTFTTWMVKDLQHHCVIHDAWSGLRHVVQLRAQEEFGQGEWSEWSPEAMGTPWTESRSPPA
Sequence of hyper-IL-6 (H-IL-6), a fusion protein comprising IL-6+sIL-6R (P05231 30-212 limits assumed, chain 2 of 2, further chain): as the sequence (P05231 30-212 limits assumed, chain 1 of 2) above

- STAT3 activity (relative luciferase activity, pSTAT3-TA-Luc reporter in BAF/gp130 cells) at 10 ug/ml inhibitor, 5 ng/ml H-IL-6 (% of activity with H-IL-6 alone) [1]: 18
- concentration giving half-maximal activation of STAT3 (H-IL-6-induced, luciferase reporter in BAF/gp130 cells) [1]: 2.5 µg/mL
- efficiency relative to sgp130Fc in inhibition of H-IL-6-induced STAT3 activation (fold vs sgp130Fc) [1]: 2 to 3
- factor of improvement over sgp130Fc in inhibition of BAF/gp130 proliferation (fold vs sgp130Fc) [1]: 1.5 to 3
- half-maximal [3H]-thymidine incorporation of BAF/gp130 cells (proliferation) [1]: 1 to 5 ng/mL
- factor of improvement over sgp130Fc in inhibition of BAF/gp130 proliferation (fold vs sgp130Fc) [2]: 1.5 to 3
- half-maximal [3H]-thymidine incorporation of BAF/gp130 cells (proliferation) [2]: 1 to 5 ng/mL
B1: sgp130PEG (PEGylated sgp130(D1-D3)-Pn dimer) (receptor, part only)
chain: MLTLQTWVVQALFIFLTTESTGELLDPCGYISPESPVVQLHSNFTAVCVLKEKCMDYFHVNANYIVWKTNHFTIPKEQYTIINRTASSVTFTDIASLNIQLTCNILTFGQLEQNVYGITIISGLPPEKPKNLSCIVNEGKKMRCEWDGGRETHLETNFTLKSEWATHKFADCKAKRDTPTSCTVDYSTVYFVNIEVWVEAENALGKVTSDHINFDPVYKVKPNPPHNLSVINSEELSSILKLTWTNPSIKSVIILKYNIQYRTKDASTWSQIPPEDTASTRSSFTVQDLKPFTEYVFRIRCMKEDGKGYWSDWSEEASGITYEDRP
modifications: C-terminal Pn cysteine peptide unsequenced; PEGylated; disulfide dimer
